The record followed here is patent US20240272176A1, “SINGLE DOMAIN ANTIBODY SPECIFIC FOR PHOSPHORYLATED H2AX AND ITS USES” (UNIVERSITE DE STRASBOURG, priority 2021, published 2024).

For experiment [1], the target named is T1, γ-H2AX (histone H2AX phosphorylated at serine 139) in drug-treated H1299 or U2OS cells or their extracts (human, UniProt P16104 1-143, phosphorylation of serine at position 139 (S139)).
T1 construct: Endogenous nuclear protein of H1299 and U2OS cells (fixed, living, or nuclear/histone extracts), not on the cell surface; also called gammaH2AX; γ-H2AX foci
The experiment is described as follows: mCherry fluorescence in transfected H1299 cells after CSK wash. The procedure:
Thus, despite their solubility in mammalian cells, these reagents cannot be transfected into cells to detect with precision γ-H2AX after drug treatment likely due to too high chromobody expression levels.
For the analysis by classical immunofluorescence microscopy, the transfected or transduced cells were fixed with 4% paraformaldehyde for 20 minutes and, after permeabilization with 0.2% Triton X100 for 5 min, they were incubated with mAb 3F4 or VHH preparations diluted in PBS containing either 10% fetal calf serum or 2% BSA. Where indicated, the cells were treated with CSK-100 modified buffer (100 mM NaCl, 300 mM sucrose, 3 mM MgCl₂, 10 mM HEPES pH 6.8, 1 mM EGTA, and 0.2% Triton X-100) for 5 minutes prior to fixation. […] Where indicated, Alexa 568 labelled-C6B molecules were used. The labelling of the purified bivalent C6 equipped with a cysteine residue at the C-terminus was performed essentially as previously described (Shaner, N.C. et al.; Nat. Biotechnol. 2004, 22, 1567-1572). Briefly, purified protein in 0.1 M KH₂PO₄ pH 6.5, 150 mM NaCl, 1 mM EDTA, 250 mM sucrose was mixed with a 1.2 molar amount of Alexa Fluor 568 maleimide derivative (ThermoFisher Scientific). […] The amount of fluorophore per bivalent C6 in the flow-through was calculated by spectrophotometry with a Nanodrop 2000 device (ThermoFisher Scientific). […] The signal was recorded with a Leica DFC350FX camera. […]

The target in the next experiment is T2, γ-H2AX in H1299 cells (Homo sapiens, UniProt P16104).
T2 construct: endogenous in cells; host or cells: H1299
The experiment is described as follows: Chromobody expression by transient transfection in H1299 cells with CSK buffer wash prior to fixation. The class given is cell-based. The settings on record: transfected H1299 cells. From the text: The pβA-scFv-eGFP, a derivative of pDRIVE-hβ-actin (Rinaldi, A.-S. et al.; Exp. Cell Res. 2013, 319, 838-849, doi:10.1016/j.yexcr.2013.01.011) was modified by PCR to insert in frame to the scFv the E6 tag and the mCherry protein using E6T-HindIII-For/E6T-HindIII-Rev and mCherry-For/mCherry-Rev primer pairs, respectively. This vector which carries unique NcoI and SpeI restriction sites was used to sub-clone the VHH variants as described above, thereby generating pβA-C6-E6T-mCherry, pβA-C6M-E6T-mCherry, pβA-C6B-E6T-mCherry and pβA-C6BM-E6T-mCherry.
The day before transfection, 8×10^4 cells were plated in 12-well culture plates containing glass coverslips. […]
For the analysis by classical immunofluorescence microscopy, the transfected or transduced cells were fixed with 4% paraformaldehyde for 20 minutes and, after permeabilization with 0.2% Triton X100 for 5 min, they were incubated with mAb 3F4 or VHH preparations diluted in PBS containing either 10% fetal calf serum or 2% BSA. […] The amount of fluorophore per bivalent C6 in the flow-through was calculated by spectrophotometry with a Nanodrop 2000 device (ThermoFisher Scientific). […] The signal was recorded with a Leica DFC350FX camera. […] For the measurement of the nuclear fluorescence intensity, the images of microscopy fields were acquired with the 20× objective. […]

B1: C6-mCherry chromobody (expressed in transfected H1299 cells) (other, not shown: small tags and cut ends)
VHH: MADVQLVESGGGLVQAGDSLRLSCAASGLTFSRYAMGWFRQAPGNEREFVAVITASGRTTLYADSVKGRFTISRDNAKNTVALQMQSLKPEDTAVYYCAADYGTSRYTRRQSEYEYWGQGTQVTVSSAAA
notes: Expressed under the β-actin promoter from pβA-C6-E6T-mCherry; junctions not spelled out; also called C6 chromobody; C6 nanobody-mCherry
As to B1, in experiment [1], the binding result was “no binding”.

B2: C6-mCherry: C6 coding region fused in frame to mCherry, expressed by transfection (protein)
VHH: B1 VHH
modifications: left off: small tags and cut ends
notes: C6 coding region fused in frame to mCherry, expressed by transfection
As to B2, the “nuclear chromobody signal after CSK treatment” value is “entirely washed off” with γ-H2AX in H1299 cells; “lost in both drug-treated and untreated cells” in the experiment with γ-H2AX in H1299 cells (listed as C6 chromobody).
